# In US20110300138A1 (published 2011):
# B1: K1-18 IgG (antibody, V domains shown)
# VH: EVQLVQSGAEVKKPGESLKISCKGSGYSFTNYWIGWVRQMPGKGLEWMGIIYPYDSDTRYSPSFEGQVTISADKSIRTAYLHWSSLKASDTAMYYCVRPRDGSYPYDAFDIWGQGTMVTVSS
# VL: EIVLTQSPGTLSLSPGERATLSCRASQSVSNNYLAWYQQKPGQAPRLLIYGASSRATGIPDRFSGSGSGTDFTLTISRLEPEDFAVYYCQHCGSSLRAFGQGTKVEIKR
# B2: K1-18 Fab (Fab, V domains shown)
# VH: B1 VH
# VL: B1 VL
# B3: K1-70 IgG (antibody, V domains shown)
# VH: EVQLVQSGAEVKKPGQSLKISCKASGYSLTDNWIGWVRQKPGKGLEWMGIIYPGDSDTRYSPSFQGQVTISADKSINTAYLQWSSLKASDTAIYYCVGLDWNYNPLRYWGPGTLVTVSS
# VL: QSVLTQPPSVSAAPGQKVTISCSGSSSDIGSNYVSWYQQFPGTAPKLLIYDNNKRPSAIPDRFSGSKSGTSATLGITGLQTGDEADYYCGTWDSRLGIAVFGGGTQLTVLG
# B4: K1-70 Fab (Fab, V domains shown)
# VH: B3 VH
# VL: B3 VL
# Experiments:
# [1] = biological target: T1, human TSH receptor (full length), coated on tubes (human, UniProt P16473 22-764); test: competition with 125I-K1-18 IgG on TSHR coated tubes; 0.001 µg/mL, diluted in HBD serum pool
# T1 construct: TSHR coated tubes as described in WO2004/050708A2; Exact preparation on the tubes is not detailed here; also called thyroid stimulating hormone receptor
# Procedure: (§1) Binding inhibition assays were carried out using TSHR coated tubes as described in WO2004/050708A2. […] After aspiration, the tubes were washed and 100 μL of ¹²⁵I-labelled protein (5×10⁴ cpm) added and incubated for 1 hour at room temperature with shaking. The tubes were then aspirated, washed and counted in a gamma counter. Inhibition of labelled protein binding was calculated as 100×[1−(cpm bound in the presence of test material/cpm bound in the presence of control material)].
# [2] = biological target: T1, human TSH receptor (full length), …; test: competition with 125I-K1-18 IgG on TSHR coated tubes; 30 µg/mL, diluted in assay buffer
# Procedure: as §1
# [3] = biological target: T1, human TSH receptor (full length), …; test: competition with 125I-K1-18 IgG on TSHR coated tubes; 1 µg/mL, diluted in assay buffer
# Procedure: as §1
# [4] = biological target: T1, human TSH receptor (full length), …; test: competition with 125I-K1-18 IgG on TSHR coated tubes; 100 µg/mL, diluted in assay buffer
# Procedure: as §1
# [5] = biological target: T1, human TSH receptor (full length), …; test: competition with 125I-K1-18 IgG on TSHR coated tubes; 10 µg/mL, diluted in assay buffer
# Procedure: as §1
# [6] = biological target: T1, human TSH receptor (full length), …; test: competition with 125I-K1-18 IgG on TSHR coated tubes; 0.03 µg/mL, diluted in assay buffer
# Procedure: as §1
# [7] = biological target: T1, human TSH receptor (full length), …; test: competition with 125I-K1-18 IgG on TSHR coated tubes; 30 µg/mL, diluted in HBD serum pool
# Procedure: as §1
# [8] = biological target: T1, human TSH receptor (full length), …; test: competition with 125I-K1-18 IgG on TSHR coated tubes; 3 µg/mL, diluted in assay buffer
# Procedure: as §1
# [9] = biological target: T1, human TSH receptor (full length), …; test: competition with 125I-K1-18 IgG on TSHR coated tubes; 100 µg/mL, diluted in HBD serum pool
# Procedure: as §1
# [10] = biological target: T1, human TSH receptor (full length), …; test: competition with 125I-K1-18 IgG on TSHR coated tubes; 1 µg/mL, diluted in HBD serum pool
# Procedure: as §1
# [11] = biological target: T1, human TSH receptor (full length), …; test: competition with 125I-K1-18 IgG on TSHR coated tubes; 0.3 µg/mL, diluted in assay buffer
# Procedure: as §1
# [12] = biological target: T1, human TSH receptor (full length), …; test: competition with 125I-K1-18 IgG on TSHR coated tubes; 0.3 µg/mL, diluted in HBD serum pool
# Procedure: as §1
# [13] = biological target: T1, human TSH receptor (full length), …; test: competition with 125I-K1-18 IgG on TSHR coated tubes; 0.003 µg/mL, diluted in HBD serum pool
# Procedure: as §1
# [14] = biological target: T1, human TSH receptor (full length), …; test: competition with 125I-K1-18 IgG on TSHR coated tubes; 0.1 µg/mL, diluted in HBD serum pool
# Procedure: as §1
# [15] = biological target: T1, human TSH receptor (full length), …; test: competition with 125I-K1-18 IgG on TSHR coated tubes; 0.001 µg/mL, diluted in assay buffer
# Procedure: as §1
# [16] = biological target: T1, human TSH receptor (full length), …; test: competition with 125I-K1-18 IgG on TSHR coated tubes; 0.003 µg/mL, diluted in assay buffer
# Procedure: as §1
# [17] = biological target: T1, human TSH receptor (full length), …; test: competition with 125I-K1-18 IgG on TSHR coated tubes; 3 µg/mL, diluted in HBD serum pool
# Procedure: as §1
# [18] = biological target: T1, human TSH receptor (full length), …; test: competition with 125I-K1-18 IgG on TSHR coated tubes; 0.01 µg/mL, diluted in assay buffer
# Procedure: as §1
# [19] = biological target: T1, human TSH receptor (full length), …; test: competition with 125I-K1-18 IgG on TSHR coated tubes; 10 µg/mL, diluted in HBD serum pool
# Procedure: as §1
# [20] = biological target: T1, human TSH receptor (full length), …; test: competition with 125I-K1-18 IgG on TSHR coated tubes; 0.03 µg/mL, diluted in HBD serum pool
# Procedure: as §1
# [21] = biological target: T1, human TSH receptor (full length), …; test: competition with 125I-K1-18 IgG on TSHR coated tubes; 0.1 µg/mL, diluted in assay buffer
# Procedure: as §1
# [22] = biological target: T1, human TSH receptor (full length), …; test: competition with 125I-K1-18 IgG on TSHR coated tubes; 0.01 µg/mL, diluted in HBD serum pool
# Procedure: as §1
binder,measurement,setting,value
B1,Inhibition of binding (%),[1],2.7%
same,Inhibition of binding (%),[2],93.8%
same,Inhibition of binding (%),[3],92.8%
same,Inhibition of binding (%),[4],94.5%
same,Inhibition of binding (%),[5],92.5%
same,Inhibition of binding (%),[6],39.3%
same,Inhibition of binding (%),[7],95.6%
same,Inhibition of binding (%),[8],93%
same,Inhibition of binding (%),[9],96.1%
same,Inhibition of binding (%),[10],91.1%
same,Inhibition of binding (%),[11],90.9%
same,Inhibition of binding (%),[12],78.3%
same,Inhibition of binding (%),[13],-0.3%
same,Inhibition of binding (%),[14],49.4%
same,Inhibition of binding (%),[15],6.9%
same,Inhibition of binding (%),[16],2.9%
same,Inhibition of binding (%),[17],94%
same,Inhibition of binding (%),[18],14.9%
same,Inhibition of binding (%),[19],94%
same,Inhibition of binding (%),[20],15.1%
same,Inhibition of binding (%),[21],78.9%
same,Inhibition of binding (%),[22],5.8%
B2,Inhibition of binding (%),[1],-1%
same,Inhibition of binding (%),[2],83%
same,Inhibition of binding (%),[3],77.5%
same,Inhibition of binding (%),[4],86.2%
same,Inhibition of binding (%),[5],81.8%
same,Inhibition of binding (%),[6],24.8%
same,Inhibition of binding (%),[7],85%
same,Inhibition of binding (%),[8],81.9%
same,Inhibition of binding (%),[9],84.8%
same,Inhibition of binding (%),[10],80.2%
same,Inhibition of binding (%),[11],71.1%
same,Inhibition of binding (%),[12],65.5%
same,Inhibition of binding (%),[13],1%
same,Inhibition of binding (%),[14],39%
same,Inhibition of binding (%),[15],-2.6%
same,Inhibition of binding (%),[16],0.8%
same,Inhibition of binding (%),[17],83.4%
same,Inhibition of binding (%),[18],8.8%
same,Inhibition of binding (%),[19],83%
same,Inhibition of binding (%),[20],10.3%
same,Inhibition of binding (%),[21],56.7%
same,Inhibition of binding (%),[22],1.8%
B3,Inhibition of binding (%),[1],0%
same,Inhibition of binding (%),[2],93.1%
same,Inhibition of binding (%),[3],92%
same,Inhibition of binding (%),[4],94.5%
same,Inhibition of binding (%),[5],91.9%
same,Inhibition of binding (%),[6],45.6%
same,Inhibition of binding (%),[7],93.9%
same,Inhibition of binding (%),[8],92.9%
same,Inhibition of binding (%),[9],95.3%
same,Inhibition of binding (%),[10],92.9%
same,Inhibition of binding (%),[11],91.5%
same,Inhibition of binding (%),[12],82.2%
same,Inhibition of binding (%),[13],2.1%
same,Inhibition of binding (%),[14],55.6%
same,Inhibition of binding (%),[15],-1.7%
same,Inhibition of binding (%),[16],0.1%
same,Inhibition of binding (%),[17],94.1%
same,Inhibition of binding (%),[18],6.8%
same,Inhibition of binding (%),[19],95.1%
same,Inhibition of binding (%),[20],17.8%
same,Inhibition of binding (%),[21],89.2%
same,Inhibition of binding (%),[22],6.1%
B4,Inhibition of binding (%),[1],-3.2%
same,Inhibition of binding (%),[2],92.2%
same,Inhibition of binding (%),[3],91%
same,Inhibition of binding (%),[4],93.3%
same,Inhibition of binding (%),[5],92.4%
same,Inhibition of binding (%),[6],68.8%
same,Inhibition of binding (%),[7],91.8%
same,Inhibition of binding (%),[8],91.1%
same,Inhibition of binding (%),[9],92.5%
same,Inhibition of binding (%),[10],92.1%
same,Inhibition of binding (%),[11],89.6%
same,Inhibition of binding (%),[12],88.1%
same,Inhibition of binding (%),[13],3.7%
same,Inhibition of binding (%),[14],75.2%
same,Inhibition of binding (%),[15],-3.9%
same,Inhibition of binding (%),[16],4.1%
same,Inhibition of binding (%),[17],92.8%
same,Inhibition of binding (%),[18],25.6%
same,Inhibition of binding (%),[19],92.6%
same,Inhibition of binding (%),[20],35%
same,Inhibition of binding (%),[21],87.6%
same,Inhibition of binding (%),[22],16.2%
